Assay results: patent US20230266317A1 (published 2023)

Tests used:
Assay in all cases: cell-based or functional assay
[1] = target: UspA2H of M. catarrhalis AERIS isolate 240, on bacteria (Moraxella catarrhalis)
[2] = target: T1, UspA2 of M. catarrhalis strain ATCC 25238 (SEQ ID NO: 1), on bacteria (Moraxella catarrhalis)
T1 chain: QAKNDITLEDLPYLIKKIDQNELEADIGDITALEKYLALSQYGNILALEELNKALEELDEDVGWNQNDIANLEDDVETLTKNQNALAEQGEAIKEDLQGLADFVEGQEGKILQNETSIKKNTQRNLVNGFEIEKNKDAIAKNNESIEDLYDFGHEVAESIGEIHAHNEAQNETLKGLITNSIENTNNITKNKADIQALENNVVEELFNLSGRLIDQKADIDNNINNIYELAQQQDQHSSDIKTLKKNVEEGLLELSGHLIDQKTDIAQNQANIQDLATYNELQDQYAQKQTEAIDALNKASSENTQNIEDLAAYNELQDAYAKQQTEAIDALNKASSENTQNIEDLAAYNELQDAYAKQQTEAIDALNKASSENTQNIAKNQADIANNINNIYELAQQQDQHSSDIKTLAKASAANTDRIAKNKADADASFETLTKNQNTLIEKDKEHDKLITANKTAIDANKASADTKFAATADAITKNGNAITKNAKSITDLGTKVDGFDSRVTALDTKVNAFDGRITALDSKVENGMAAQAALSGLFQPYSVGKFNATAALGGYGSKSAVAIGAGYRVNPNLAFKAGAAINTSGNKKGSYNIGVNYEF

[3] = target: UspA2H of M. catarrhalis AERIS isolate 193, on bacteria (Moraxella catarrhalis)
[4] = target: UspA2H of M. catarrhalis AERIS isolate 415, on bacteria (Moraxella catarrhalis)
[5] = target: UspA2H of M. catarrhalis AERIS isolate 268, on bacteria (Moraxella catarrhalis)
[6] = target: UspA2H of M. catarrhalis AERIS isolate 296, on bacteria (Moraxella catarrhalis)
[7] = target: UspA1 of M. catarrhalis strain ATCC 43617, on bacteria (Moraxella catarrhalis)
[8] = target: T2, UspA2 of M. catarrhalis Dutch isolate F10, on bacteria (Moraxella catarrhalis)
T2 chain: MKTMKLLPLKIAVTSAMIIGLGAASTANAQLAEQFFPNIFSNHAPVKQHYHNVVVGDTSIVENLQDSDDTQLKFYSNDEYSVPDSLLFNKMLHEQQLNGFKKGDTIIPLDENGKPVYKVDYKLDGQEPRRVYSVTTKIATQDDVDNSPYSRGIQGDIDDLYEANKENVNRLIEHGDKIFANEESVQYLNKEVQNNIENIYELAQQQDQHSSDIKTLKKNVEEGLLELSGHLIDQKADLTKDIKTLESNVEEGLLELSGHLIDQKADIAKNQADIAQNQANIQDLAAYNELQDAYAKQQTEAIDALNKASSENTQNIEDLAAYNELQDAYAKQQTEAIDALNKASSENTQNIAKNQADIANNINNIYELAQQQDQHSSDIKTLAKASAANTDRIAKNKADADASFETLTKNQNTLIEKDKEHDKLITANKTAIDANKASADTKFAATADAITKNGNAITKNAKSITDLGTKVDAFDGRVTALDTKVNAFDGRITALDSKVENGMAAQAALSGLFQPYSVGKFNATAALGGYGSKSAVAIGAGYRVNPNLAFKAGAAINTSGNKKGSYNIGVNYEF

[9] = target: UspA2 of M. catarrhalis Denmark isolate BBH18 (wild type), on bacteria (Moraxella catarrhalis)

B1: anti-UspA2 monoclonal antibody FHUSPA2/10 (antibody, V domains shown)
VH: EVQLQQSGTVLARPGASVKMSCKASGYSFTSYWMHWVKQRPGQGLEWIGAIYPGNSDTSYNQKFKGKAKLTAVTSASTAYMELSNLTNEDSAVYSCTLLRFLDAYWGQGTLVTVSA
VL: QIVLSQSPAILSASPGEKVTMTCRASSSVSYMHWYQQKPGSSPKPWIYATSNLASGVPARFSGSGSGTSYSLTISRVEAEDAATYYCQQWSSNPPTFGGGSKLEIK
[1]
  bactericidal activity (mid-point titer): > 25600 mid-point titer (reciprocal dilution inducing 50% of killing)
[2]
  bactericidal activity (mid-point titer): 1.88e+06 mid-point titer (reciprocal dilution inducing 50% of killing)
[3]
  bactericidal activity (mid-point titer): > 640000 mid-point titer (reciprocal dilution inducing 50% of killing)
[4]
  bactericidal activity (mid-point titer): 256000 mid-point titer (reciprocal dilution inducing 50% of killing)
[5]
  bactericidal activity (mid-point titer): > 384000 mid-point titer (reciprocal dilution inducing 50% of killing)
[6]
  bactericidal activity (mid-point titer): 114000 mid-point titer (reciprocal dilution inducing 50% of killing)
[7]
  bactericidal activity (mid-point titer): < 100 mid-point titer (reciprocal dilution inducing 50% of killing)
[8]
  bactericidal activity (mid-point titer): 528000 mid-point titer (reciprocal dilution inducing 50% of killing)
[9]
  bactericidal activity (mid-point titer): 386000 mid-point titer (reciprocal dilution inducing 50% of killing)
